Earlier results in paper PMC2662774.

What was measured:
[1] = target: CXCR4 sY21 P38 peptide 1-38 (Homo sapiens) (UniProt P61073); assay: NMR titration
[2] = target: CXCR4 1-38 (sY21 P38) 1-38 (Homo sapiens) (UniProt P61073); assay: NMR

SDF-1α, sequence (P48061 24-88): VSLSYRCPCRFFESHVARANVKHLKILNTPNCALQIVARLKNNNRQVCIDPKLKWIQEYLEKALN

Kd [1]: 1.3 µM | Kd [2]: 1.3 µM
Substance: SDF-1α (from UniProt P48061)
